# Reference: PMC9499506, “TNF-α and IL-1β Modulate Blood-Brain Barrier Permeability and Decrease Amyloid-β Peptide Efflux in a Human Blood-Brain Barrier Model” (International Journal of Molecular Sciences, 2022)
# Test system: BLECs
# Conditions: MTT assay; 10 ng·mL^−1, 24 h, abluminal compartment
# Description: An MTT assay was performed as a preliminary test to determine their effect on BLEC viability and to validate the chosen concentrations. Dimethyl sulfoxide (DMSO) at 10% (v/v) was used as a positive control of cell toxicity.
# After 6 days of coculture, TNF-α or IL-1β were added to the basolateral compartment (brain side) at 10 ng·mL^−1 for 24 h, at 37 °C and 5% CO2, to mimic CNS inflammation condition. Each condition was studied in triplicate.
# The standard MTT [3-(4,5-dimethylthiazol-2-yl)-2,5-diphenyltetrazolium bromide] assay (AR1156, Boster Biological Technology, Pleasanton, CA, USA) was performed to determine BLEC viability. Briefly, after coculture treatments, culture medium was removed and replaced with worm Ringer-Hepes (RH; 150 mM NaCl, 5.2 mM KCl, 2.2 mM CaCl2, 0.2 mM MgCl2–6H2O, 6 mM NaHCO3, 5 mM HEPES, 2.8 mM glucose; pH: 7.4) in basolateral compartment and with MTT solution (0.5 mg·mL^−1) in RH at in the opposite compartment for 3 h at 37 °C and 5% CO2. […] Aliquot was sampled in 96-well plate and the optical density (OD) was measured with a microplate reader (Synergy H1, BioTek. Colmar, France) at the wavelength of 570 and 630 nm. The percentage of relative cell viability compared to the control condition was subsequently determined using the following formula: % relative cell viability = ((OD570 − OD630) condition)/((OD570 – OD630)control) × 100.
substance,measurement,value
interleukin-1β [IL-1β],effect on BLEC viability,did not affect BLEC viability
